Laboratory results as given in the supplement of paper PMC11316812.
± gives the standard deviation of the averaged measurements.

Assays:
MCF7 = test: percentage of EdU-negative (G0-arrested) nuclei per well, 72 h; higher = more G0 arrest; settings: reference: sequence is the full UniProt precursor, the tested protein was the secreted form or ectodomain
hTERT-HMEC = test: as above; settings: reference: sequence is the full UniProt precursor, the tested protein was the secreted form or ectodomain
[1] = protein concentration 0.0225 µM
[2] = protein concentration 0.0135 µM
[3] = protein concentration 0.0075 µM
[4] = protein concentration 0.0257143 µM
[5] = protein concentration 0.257143 µM
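Further: secreted proteins added to cultured cells, EdU pulse at the end, nuclei found by Hoechst imaging, EdU status from nuclear versus surrounding ring intensity ratio, PBS as neutral control.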

| Sequence | percentage of EdU-negative (MCF7; [1]) | percentage of EdU-negative (MCF7; protein concentration 0.225 µM) | percentage of EdU-negative (hTERT-HMEC; [1]) | percentage of EdU-negative (hTERT-HMEC; protein concentration 0.225 µM) | percentage of EdU-negative (MCF7; [4]) | percentage of EdU-negative (MCF7; [5]) | percentage of EdU-negative (hTERT-HMEC; [4]) | percentage of EdU-negative (hTERT-HMEC; [5]) | further results |
| --- | --- | --- | --- | --- | --- | --- | --- | --- | --- |
| MVRMVPVLLSLLLLLGPAVPQENQDGRYSLTYIYTGLSKHVEDVPAFQALGSLNDLQFFRYNSKDRKSQPMGLWRQVEGMEDWKQDSQLQKAREDIFMETLKDIVEYYNDSNGSHVLQGRFGCEIENNRSSGAFWKYYYDGKDYIEFNKEIPAWVPFDPAAQITKQKWEAEPVYVQRAKAYLEEECPATLRKYLKYSKNILDRQDPPSVVVTSHQAPGEKKKLKCLAYDFYPGKIDVHWTRAGEVQEPELRGDVLHNGNGTYQSWVVVAVPPQDTAPYSCHVQHSSLAQPLVVPWEAS | 26.1 ± 2% | 26.1 ± 1.9% | 5.49 ± 0.45% | 5.19 ± 0.89% |  |  |  |  |  |
| MDLRQFLMCLSLCTAFALSKPTEKKDRVHHEPQLSDKVHNDAQSFDYDHDAFLGAEEAKTFDQLTPEESKERLGKIVSKIDGDKDGFVTVDELKDWIKFAQKRWIYEDVERQWKGHDLNEDGLVSWEEYKNATYGYVLDDPDPDDGFNYKQMMVRDERRFKMADKDGDLIATKEEFTAFLHPEEYDYMKDIVVQETMEDIDKNADGFIDLEEYIGDMYSHDGNTDEPEWVKTEREQFVEFRDKNRDGKMDKEETKDWILPSDYDHAEAEARHLVYESDQNKDGKLTKEEIVDKYDLFVGSQATDFGEALVRHDEF |  |  |  |  |  |  |  |  | percentage of EdU-negative (MCF7; [2]): 22.72 ± 0.078%; percentage of EdU-negative (MCF7; protein concentration 0.135 µM): 23.6 ± 3.3%; percentage of EdU-negative (hTERT-HMEC; [2]): 5.58 ± 1.3%; percentage of EdU-negative (hTERT-HMEC; protein concentration 0.135 µM): 7.65 ± 0.27% |
| MACWWPLLLELWTVMPTWAGDELLNICMNAKHHKRVPSPEDKLYEECIPWKDNACCTLTTSWEAHLDVSPLYNFSLFHCGLLMPGCRKHFIQAICFYECSPNLGPWIQPVGSLGWEVAPSGQGERVVNVPLCQEDCEEWWEDCRMSYTCKSNWRGGWDWSQGKNRCPKGAQCLPFSHYFPTPADLCEKTWSNSFKASPERRNSGRCLQKWFEPAQGNPNVAVARLFASSAPSWELSYTIMVCSLFLPFLS [A6ND01] |  |  |  |  |  |  |  |  | percentage of EdU-negative (MCF7; [3]): 24.06 ± 0.21%; percentage of EdU-negative (MCF7; protein concentration 0.075 µM): 25.05 ± 0.12%; percentage of EdU-negative (hTERT-HMEC; [3]): 5.08 ± 0.06%; percentage of EdU-negative (hTERT-HMEC; protein concentration 0.075 µM): 7.68 ± 0.15% |
| MYRHGISSQRSWPLWTTIFIFLGVAAILGVTIGLLVHFLAVEKTYYYQGDFHISGVTYNDNCENAASQASTNLSKDIETKMLNAFQNSSIYKEYVKSEVIKLLPNANGSNVQLQLKFKFPPAEGVSMRTKIKAKLHQMLKNNMASWNAVPASIKLMEISKAASEMLTNNCCGRQVANSIITGNKIVNGKSSLEGAWPWQASMQWKGRHYCGASLISSRWLLSAAHCFAKKNNSKDWTVNFGIVVNKPYMTRKVQNIIFHENYSSPGLHDDIALVQLAEEVSFTEYIRKICLPEAKMKLSENDNVVVTGWGTLYMNGSFPVILQEDFLKIIDNKICNASYAYSGFVTDTMLCAGFMSGEADACQNDSGGPLAYPDSRNIWHLVGIVSWGDGCGKKNKPGVYTRVTSYRNWITSKTGL [Q86T26] |  |  |  |  | 23.6 ± 1.4% | 25.2 ± 1.9% | 5.22 ± 1.8% | 5.69 ± 1% |  |
| MAPPSVPLVLLLVLLLSLAETPASAPAHRGRGGWTLNSAGYLLGPVLHLPQMGDQDGKRETALEILDLWKAIDGLPYSHPPQPSKRNVMETFAKPEIGDLGMLSMKIPKEEDVLKS [Q9UBC7] |  |  |  |  | 25.7 ± 2.2% | 27.5 ± 3% | 5.31 ± 1.9% | 6.11 ± 0.2% |  |
| MRPLLVLLLLGLAAGSPPLDDNKIPSLCPGHPGLPGTPGHHGSQGLPGRDGRDGRDGAPGAPGEKGEGGRPGLPGPRGDPGPRGEAGPAGPTGPAGECSVPPRSAFSAKRSESRVPPPSDAPLPFDRVLVNEQGHYDAVTGKFTCQVPGVYYFAVHATVYRASLQFDLVKNGESIASFFQFFGGWPKPASLSGGAMVRLEPEDQVWVQVGVGDYIGIYASIKTDSTFSGFLVYSDWHSSPVFA [Q9BXJ0] | 23.7 ± 0.35% | 24.3 ± 0.42% | 5.51 ± 0.91% | 6.26 ± 0.1% |  |  |  |  |  |
